Measurements published in US9156916.

Experiments:
[1] = target: human surface membrane immunoglobulin D (smIgD) (human) (UniProt P01880); assay: cell-based or functional assay
[2] = target: human surface membrane immunoglobulin D (smIgD) (human) (UniProt P01880); assay: flow cytometry, dual labelling of human PBMC (CD3 and IgD)
[3] = target: human surface membrane immunoglobulin D (smIgD) (human) (UniProt P01880); assay: flow cytometry, dual labelling of human PBMC (CD14 and IgD)

Chain of UniProt P01880 (P01880 whole entry): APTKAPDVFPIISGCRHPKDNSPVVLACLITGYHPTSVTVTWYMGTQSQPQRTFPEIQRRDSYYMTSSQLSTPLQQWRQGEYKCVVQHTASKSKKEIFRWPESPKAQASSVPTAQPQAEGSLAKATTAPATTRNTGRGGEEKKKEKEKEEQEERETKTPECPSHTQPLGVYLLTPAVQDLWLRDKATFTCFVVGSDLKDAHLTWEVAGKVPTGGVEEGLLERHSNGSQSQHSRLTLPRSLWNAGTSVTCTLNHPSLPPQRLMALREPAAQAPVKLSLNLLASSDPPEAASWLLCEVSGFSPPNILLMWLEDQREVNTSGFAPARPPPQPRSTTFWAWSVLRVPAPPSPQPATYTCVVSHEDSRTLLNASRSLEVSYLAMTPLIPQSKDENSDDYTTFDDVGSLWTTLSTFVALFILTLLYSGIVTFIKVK

## anti-human smIgD antibody (clone STAR94, Serotec, Oxford, UK)
[1]
  proportion of human monocyte population expressing intra-cellular TNF-α after LPS, antibody given 24 hrs before LPS (flow cytometry): 5%
  proportion of human monocyte population expressing intra-cellular TNF-α, antibody given concurrently with LPS for 4 hours (flow cytometry): 26%

## goat FITC-conjugated anti-human IgD antibody (clone STAR94F)
[2]
  percent of CD3+ T-cells labelled for smIgD: 10%
[3]
  percent of CD14+ cells labelled for smIgD: 54%
